B1: PHTF1 (parent)
chain: RVKLISNKGTETDNDPSCVHPIIK
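Also: lentivirally expressed fusions sorted by FACS into six bins by GFP to DsRed ratio, PSI derived from sequencing read proportions per bin multiplied by bin number.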

This series covers variants of B1. Put plainly: protein stability index of a GFP-peptide fusion (GPS, HEK-293T) (PSI 1-6); higher = more stable. Conditions: c terminus: a fixed tail appended.
Consider RVKLISNKGTETDNDQSCVHPIIK [P16Q], for which the protein stability index is 4.03.

For RVKLISNKGTETDNDASCVHPIIK [P16A], the protein stability index was 3.98.

For the variant RVKLISNKGTETDNDCSCVHPIIK [P16C], the protein stability index worked out at 3.82.

On to RVKLISNKGTETDNDFSCVHPIIK [P16F], for which the protein stability index was 3.48.

As for RVKLISNKGTETDNDTSCVHPIIK [P16T], the protein stability index was determined as 3.94.

Take RVKLISNKGTETDNDPSCVHHIIK [P21H]: the protein stability index came out at 4.03.

As for RVKLISNKGTETDNDPSCVHIIIK [P21I], the protein stability index came out at 2.1.

Consider RVKLISNKGTETDNDPSCVHMIIK [P21M], for which the protein stability index is 3.06.

On to RVKLISNKGTETDNDPSCVHLIIK [P21L], for which the protein stability index is 2.3.

For RVKLISNKGTETDNDPSCVHEIIK [P21E], the protein stability index turned out to be 4.03.

For RVKLISNKGTETDNDPSCVHYIIK [P21Y], the protein stability index came to 3.4.

Turning to RVKLISNKGTETDSDPSCVHPIIK [N14S], the protein stability index is 4.56.

RVKLISNKGTETDLDPSCVHPIIK [N14L]: the protein stability index was 3.48.

As for RVKLISNKGTETDIDPSCVHPIIK [N14I], the protein stability index was 3.06.

As for RVKLISNKGTETDTDPSCVHPIIK [N14T], the protein stability index was 4.16.

As for RVKLISNKGTETDVDPSCVHPIIK [N14V], the protein stability index is 4.26.

In the case of RVKLISNKGTETDHDPSCVHPIIK [N14H], the protein stability index amounted to 3.82.

RVKLISNKGTETDYDPSCVHPIIK [N14Y]: the protein stability index amounted to 3.73.

Turning to RVKLISNKGTETDQDPSCVHPIIK [N14Q], the protein stability index worked out at 4.29.

Regarding RTKLISNKGTETDNDPSCVHPIIK [V2T], the protein stability index worked out at 4.35.

Consider RFKLISNKGTETDNDPSCVHPIIK [V2F], for which the protein stability index turned out to be 3.26.

Consider RAKLISNKGTETDNDPSCVHPIIK [V2A], for which the protein stability index worked out at 4.41.

In the case of RMKLISNKGTETDNDPSCVHPIIK [V2M], the protein stability index was found to be 3.97.

RCKLISNKGTETDNDPSCVHPIIK [V2C]: the protein stability index amounted to 4.02.

As to RYKLISNKGTETDNDPSCVHPIIK [V2Y], the protein stability index came out at 3.54.

With RVKLISNRGTETDNDPSCVHPIIK [K8R], the protein stability index is 3.95.

Take RVKLISNNGTETDNDPSCVHPIIK [K8N]: the protein stability index was determined as 3.96.

Regarding RVKLISNCGTETDNDPSCVHPIIK [K8C], the protein stability index is 3.04.

As to RVKLISNWGTETDNDPSCVHPIIK [K8W], the protein stability index is 2.89.

Take RVKLISNMGTETDNDPSCVHPIIK [K8M]: the protein stability index turned out to be 3.15.

Regarding RVKLISNKGTETDNDPSCVHPITK [I23T], the protein stability index is 4.57.

For RVKLISNKGTETDNDPSCVHPILK [I23L], the protein stability index is 4.47.

For RVKLISNKGTETDNDPSCVHPIKK [I23K], the protein stability index is 4.74.

For the variant RVKLISNKGTETDNDPSCVHPIMK [I23M], the protein stability index worked out at 4.19.

Take RVKLISNKGTETDNDPSCVHPIGK [I23G]: the protein stability index came to 4.49.

As to RVKLISNKGTETDNDPSCVHPIAK [I23A], the protein stability index amounted to 4.59.

With RVKLISNKGTETDNDPSCVHPIDK [I23D], the protein stability index was 4.82.

As for RVKLISNKGTETDNDPSCVHPIYK [I23Y], the protein stability index turned out to be 4.16.

As for RVKLISNKGTETDNDPSCVHPIPK [I23P], the protein stability index was found to be 4.69.

In the case of RVKLISNKGTETDNDPSCVHPISK [I23S], the protein stability index was 4.37.

Take RVKLISNKGTETDNDPSCVHPIQK [I23Q]: the protein stability index came to 4.64.

Take RVKLISNKGTETDNDPSCVHPICK [I23C]: the protein stability index worked out at 4.67.

As for RVKLISNKGTETDNDPSCVHPIIV [K24V], the protein stability index turned out to be 3.17.

In the case of RVKLISNKGTETDNDPSCVHPIIN [K24N], the protein stability index was 4.26.

In the case of RVKLISNKGTETDNDPSCVHPIIA [K24A], the protein stability index was found to be 3.54.

With RVKLISNKGTETDNDPSCVHPIIE [K24E], the protein stability index is 4.13.

As to RVKLISNKGTETDNDPSCVHPIIW [K24W], the protein stability index turned out to be 2.73.

Consider RVKLISNKGTETDNDPSCVHPIIP [K24P], for which the protein stability index stood at 4.27.

Turning to RVKLISNKGTETDNDPSCVHPIIQ [K24Q], the protein stability index came to 3.74.

RVKLISNKGTETDNDPSCVHPIIG [K24G]: the protein stability index turned out to be 3.76.

Take RVKLISNKGTETDNDPSCVHPIIR [K24R]: the protein stability index stood at 4.09.

With RVKLISDKGTETDNDPSCVHPIIK [N7D], the protein stability index was found to be 4.26.

Take RVKLISRKGTETDNDPSCVHPIIK [N7R]: the protein stability index was found to be 3.47.

RVKLISQKGTETDNDPSCVHPIIK [N7Q]: the protein stability index was found to be 4.09.

As for RVKLISWKGTETDNDPSCVHPIIK [N7W], the protein stability index amounted to 3.1.

Take RVKLISCKGTETDNDPSCVHPIIK [N7C]: the protein stability index was 3.64.

For the variant RVKLISGKGTETDNDPSCVHPIIK [N7G], the protein stability index was determined as 3.96.

For RVKLISVKGTETDNDPSCVHPIIK [N7V], the protein stability index came to 3.77.

With RVKLISLKGTETDNDPSCVHPIIK [N7L], the protein stability index amounted to 3.36.

For RVKLISFKGTETDNDPSCVHPIIK [N7F], the protein stability index was determined as 2.92.

Take RVKLISNKGTDTDNDPSCVHPIIK [E11D]: the protein stability index worked out at 4.05.

RVKLISNKGTTTDNDPSCVHPIIK [E11T]: the protein stability index was 3.82.

Consider RVKLISNKGTYTDNDPSCVHPIIK [E11Y], for which the protein stability index came out at 3.

For the variant RVKLISNKGTPTDNDPSCVHPIIK [E11P], the protein stability index was found to be 3.95.

For the variant RVKLISNKGTHTDNDPSCVHPIIK [E11H], the protein stability index was determined as 3.41.

For RVKLISNKGTMTDNDPSCVHPIIK [E11M], the protein stability index was determined as 3.13.

In the case of RVKLISNKGTRTDNDPSCVHPIIK [E11R], the protein stability index came out at 3.45.

With RVKLISNKGTETDNWPSCVHPIIK [D15W], the protein stability index turned out to be 2.04.

Take RVKLISNKGTETDNNPSCVHPIIK [D15N]: the protein stability index turned out to be 4.06.

For RVKLISNKGTETDNLPSCVHPIIK [D15L], the protein stability index amounted to 3.27.

Regarding RVKLISNKGTETDNTPSCVHPIIK [D15T], the protein stability index worked out at 3.56.

On to RVKLISNKGTETDNHPSCVHPIIK [D15H], for which the protein stability index is 3.64.

On to RVKLISNKGTETDNSPSCVHPIIK [D15S], for which the protein stability index is 3.9.

As for RVKLISNKGTETDNDPSCVMPIIK [H20M], the protein stability index was 4.22.

In the case of RVKLISNKGTETDNDPSCVRPIIK [H20R], the protein stability index is 4.26.

On to RVKLISNKGTETDNDPSCVGPIIK [H20G], for which the protein stability index came out at 4.43.

With RVKLISNKGTETDNDPSCVDPIIK [H20D], the protein stability index was 4.46.

As to RVKLISNKGTETDNDPSCVNPIIK [H20N], the protein stability index was 4.15.

Turning to RVKLISNKGTETDNDPSCVAPIIK [H20A], the protein stability index came out at 4.3.

As to RVKLISNKGTETDNDPSCVWPIIK [H20W], the protein stability index came to 3.32.

Turning to RVKLISNKGTETDNDPSCVTPIIK [H20T], the protein stability index turned out to be 4.49.

In the case of DVKLISNKGTETDNDPSCVHPIIK [R1D], the protein stability index was determined as 4.74.

On to PVKLISNKGTETDNDPSCVHPIIK [R1P], for which the protein stability index is 4.44.

NVKLISNKGTETDNDPSCVHPIIK [R1N]: the protein stability index is 4.63.

As for GVKLISNKGTETDNDPSCVHPIIK [R1G], the protein stability index amounted to 4.15.

With FVKLISNKGTETDNDPSCVHPIIK [R1F], the protein stability index is 2.21.

As for HVKLISNKGTETDNDPSCVHPIIK [R1H], the protein stability index was determined as 4.12.

Take AVKLISNKGTETDNDPSCVHPIIK [R1A]: the protein stability index turned out to be 4.57.

Take VVKLISNKGTETDNDPSCVHPIIK [R1V]: the protein stability index amounted to 3.41.

As to WVKLISNKGTETDNDPSCVHPIIK [R1W], the protein stability index was 2.81.

Turning to RVFLISNKGTETDNDPSCVHPIIK [K3F], the protein stability index came out at 3.29.

On to RVELISNKGTETDNDPSCVHPIIK [K3E], for which the protein stability index was 4.64.

Turning to RVCLISNKGTETDNDPSCVHPIIK [K3C], the protein stability index came out at 3.52.

Turning to RVTLISNKGTETDNDPSCVHPIIK [K3T], the protein stability index worked out at 4.19.

(Values after the supplement of paper PMC10567573.)
